Measurements as given in patent US20180028609A1 (UCL BUSINESS, published 2018).

T1: human Leucine-rich alpha-2-glycoprotein 1 (Lrg1) (human, UniProt P02750 36-347, limits assumed)
T1 construct: In the western blots the native protein of conditioned medium, vitreous and serum was probed; also called human Lrg1; hLrg1
T1 sequence: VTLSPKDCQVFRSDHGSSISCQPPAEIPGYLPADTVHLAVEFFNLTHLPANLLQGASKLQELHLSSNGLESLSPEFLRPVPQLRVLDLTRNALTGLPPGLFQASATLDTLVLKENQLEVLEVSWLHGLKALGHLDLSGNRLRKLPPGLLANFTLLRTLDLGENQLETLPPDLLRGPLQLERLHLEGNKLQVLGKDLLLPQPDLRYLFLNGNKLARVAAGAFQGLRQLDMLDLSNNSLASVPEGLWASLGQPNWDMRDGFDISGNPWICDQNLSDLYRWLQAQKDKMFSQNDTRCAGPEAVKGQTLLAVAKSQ

T2: Lrg1 peptide GNKLQVLGKDLLLPQ (amino acids 221-235 of Lrg1) (human)
T2 construct: Synthetic 15-mer of the overlapping library
T2 peptide: GNKLQVLGKDLLLPQ


Columns and labels:
[1] = biological target: T1, human Leucine-rich alpha-2-glycoprotein …; test: competition ELISA: dilution series of the purified antibody against a fixed concentration of biotinylated mouse 15C4 on recombinant hLRG1; bound biotinylated 15C4 detected with streptavidin-peroxidase and TMB [bottom panel]
From the text: Top panel-Analytical size exclusion chromatography showing single peak and no aggregates. SDS-PAGE showing reduced (lane 1) and non-reduced (lane 2) antibody. Bottom panel-Anti-hLRG1 competition ELISA. A dilution series of each purified antibody was competed against a fixed concentration of biotinylated mouse 15C4 for binding to recombinant hLRG1. Bound biotinylated mouse 15C4 was detected using streptavidin-peroxidase and TMB substrate.
The properties of Magacizumab were investigated. Analytical size exclusion chromatography was conducted showing a single peak and no aggregates (FIG. 20). An anti-hLrg1 competition ELISA was carried out. A dilution series of each purified antibody was competed against a fixed concentration of biotinylated mouse 15C4 for binding to recombinant hLrg1. Bound biotinylated mouse 15C4 was detected using streptavidin-peroxidase and TMB substrate. This was an analytical step in which several humanised variants were tested against the chimeric 15C4, in order to identify those that retained the best binding characteristics.

[2] = biological target: T1, human Leucine-rich alpha-2-glycoprotein …; test: competition ELISA on coated hLrg1; competitor biotinylated mouse 15C4 at 0.4 µg/ml
[3] = biological target: T1, human Leucine-rich alpha-2-glycoprotein …; test: competition ELISA: plate coated with hLrg1, dilution series of the test antibody premixed with biotinylated mouse 15C4 (0.4 µg/ml); bound biotinylated 15C4 detected with streptavidin-HRP and TMB [top graph]
Protocol: (§1) The chimeric antibody was expressed transiently in HEK EBNA cells and stably in NS0 mouse myeloma cells, purified and tested for binding to human Lrg1 in a competition ELISA assay. A Nunc Immuno MaxiSorp 96 well flat bottom microtitre plate (Fisher, cat. no. DIS-971-030J) was pre-coated with 0.2 μg/ml hLrg1 (supplied by UCL) overnight in 0.1 N Sodium Carbonate buffer (NaHCO₃) at +4° C. The following day the plate was washed 1× with PBST and blocked with 3% BSA/PBS for 1 hour at room temperature. After washing 3× with PB ST, a three-fold dilution series of chimeric, mouse or control antibodies from 100 μg/ml to 0.13 μg/ml was premixed with a constant concentration of biotinylated mouse 15C4 (0.4 μg/ml, final concentration), added to the plates and incubated for 1.5 hours at room temperature. Following 3×PBST washes, the binding of the biotinylated mAb was detected with streptavidin-HRP (Sigma, cat. no. 55512) and TMB substrate (Invitrogen, cat. no. 00-2023). The reaction was stopped with 3 M HCl, absorbance read at 450 nm on a Dynex Technologies MRX TC II plate reader and the binding curves plotted.

[4] = biological target: T1, human Leucine-rich alpha-2-glycoprotein …; test: competition ELISA: plate coated with hLrg1, dilution series of the test antibody premixed with biotinylated mouse 15C4 (0.4 µg/ml); bound biotinylated 15C4 detected with streptavidin-HRP and TMB [bottom graph]
Protocol: as §1

[5] = biological target: T1, human Leucine-rich alpha-2-glycoprotein …; test: Biacore SPR; human Lrg1 immobilised, mAb at 20-100 nM
Protocol: The four lead mAbs were examined using Biacore, in experiments in which human Lrg1 was immobilized on the chip, and mAbs passed across at concentrations ranging from 20-100 nM. The Table below summarises the kinetic data.

[6] = biological target: T2, Lrg1 peptide GNKLQVLGKDLLLPQ (amino …); test: ProArray Ultra peptide microarray, fluorescent secondary antibody
Protocol: The determination of peptide-antibody binding was performed by incubation of serum or antibody samples with a ProArray Ultra® peptide microarray, followed by incubation with a fluorescent-labelled secondary antibody.
ProArray Ultra® slides were blocked using a validated blocking buffer to reduce non-specific binding of the sera. They were then incubated with test samples, followed by incubation with a specific fluorescent-labelled secondary antibody. After several washing steps, the ProArray Ultra® arrays were dried and scanned using a high-resolution fluorescence microarray scanning system.
Overlapping peptides representing LRG1 were synthesized and printed onto ProArray Ultra® microarray slides, alongside selected murine IgG controls. Slides were incubated with murine monoclonal antibody samples 4H2, 15C4 and 3A11 to identify putative epitopes. An overlapping peptide library representing Lrg1 was synthesized from the sequence provided by the sponsor. 15-mer synthetic peptides, overlapping by 10 amino acids, were generated.

Row | Binder | IC50 fold difference against mouse 15C4 [2] [fold] | IC50 (read off the curve) [3] [mg/L] | IC50 (read off the curve) [4] [mg/L] | also measured
1 | Magacizumab (humanised 15C4 antibody comprising heavy chain variable region VH5 and kappa light chain variable region VK3) (antibody, V domains shown, also called VH5/Vk3_3B6 clone; humanised antibody) VH: QVQLVQSGAEVKKPGSSVKVSCKASGYTFSGYWMNWVRQAPGQGLEWIGQIYPGDGDTNYNGKFKGRVTITADKSTSTAYMELSSLRSEDTAVYYCARSITTVVLDYWGQGTTVTVSS VL: DIVLTQSPDSLAVSLGERATISCRASQSVSTSGYSFMHWYQQKPGQPPKLLIKYASNLESGVPARFSGSGSGTDFTLTISSLQPEDFATYYCQHSWEMPLTFGQGTKLEIK | – | – | – | binding result [1]: binds
2 | chimeric 15C4 antibody (murine 15C4 variable regions with human IgG4 (S241P) heavy chain constant region and Kappa light chain constant region) (antibody, V domains shown, Human IgG4 (S241P) heavy chain constant region and human Kappa light chain constant region; Expressed transiently in HEK EBNA cells and stably in NS0 cells; also called chimeric antibody; VH0/Vk0) VH: QVQLQQSGDEVVRPGSSVKISCKASGYTFSGYWMNWVKQRPGQGLQWIGQIYPGDGDTNYNGKFKGKATLTADKSSSTAYMQLSTLTSEDSAIYFCARSITTVVLDYWGQGTTLTVSS VL: DIVLTQSPVSLAVSLGQRATISCRASQSVSTSGYSFMHWYQQKPGQPPKFLIKYASNLESGVPARFSGSGSGTDFTLNIHPVEEEDTATYYCQHSWEMPLTFGAGTKLELK | ≤ 2 | ~6 | ~3 | –
3 | Antibody 15C4 (mouse monoclonal antibody against human Lrg1) (antibody, V domains shown, Murine hybridoma antibody; also called mouse 15C4; mAb 15C4) VH: QVQLQQSGDEVVRPGSSVKISCKASGYTFSGYWMNWVKQRPGQGLQWIGQIYPGDGDTNYNGKFKGKATLTADKSSSTAYMQLSTLTSEDSAIYFCARSITTVVLDYWGQGTTLTVSS VL: DIVLTQSPVSLAVSLGQRATISCRASQSVSTSGYSFMHWYQQKPGQPPKFLIKYASNLESGVPARFSGSGSGTDFTLNIHPVEEEDTATYYCQHSWEMPLTFGAGTKLELK | – | ~5 | ~3 | Kd [5]: 1.27 pM; binding result [6]: binds

The next lines start with results.

Row | IC50 fold difference against mouse 15C4 [2] [fold] | IC50 (read off the curve) [3] [mg/L] | IC50 (read off the curve) [4] [mg/L] | Binder | also measured
4 | ≤ 2 | – | – | control antibody VH1/Vk0 (antibody, V domains shown) VH: QVQLVQSGDEVKKPGSSVKVSCKASGYTFSGYWMNWVKQAPGQGLQWIGQIYPGDGDTNYNGKFKGRATITADKSTSTAYMQLSTLTSEDSAIYFCARSITTVVLDYWGQGTTVTVSS VL: DIVLTQSPVSLAVSLGQRATISCRASQSVSTSGYSFMHWYQQKPGQPPKFLIKYASNLESGVPARFSGSGSGTDFTLNIHPVEEEDTATYYCQHSWEMPLTFGAGTKLELK | –
5 | ≤ 2 | – | – | control antibody VH0/Vk1 (antibody, V domains shown) VH: QVQLQQSGDEVVRPGSSVKISCKASGYTFSGYWMNWVKQRPGQGLQWIGQIYPGDGDTNYNGKFKGKATLTADKSSSTAYMQLSTLTSEDSAIYFCARSITTVVLDYWGQGTTLTVSS VL: DIVLTQSPDSLAVSLGERATISCRASQSVSTSGYSFMHWYQQKPGQPPKFLIKYASNLESGVPARFSGSGSGTDFTLTISSLQEEDFATYYCQHSWEMPLTFGQGTKLEIK | –
